T1: human FcγRIIA (NM_021642) expressed on cells (human, UniProt P12318 36-317)
T1 sequence: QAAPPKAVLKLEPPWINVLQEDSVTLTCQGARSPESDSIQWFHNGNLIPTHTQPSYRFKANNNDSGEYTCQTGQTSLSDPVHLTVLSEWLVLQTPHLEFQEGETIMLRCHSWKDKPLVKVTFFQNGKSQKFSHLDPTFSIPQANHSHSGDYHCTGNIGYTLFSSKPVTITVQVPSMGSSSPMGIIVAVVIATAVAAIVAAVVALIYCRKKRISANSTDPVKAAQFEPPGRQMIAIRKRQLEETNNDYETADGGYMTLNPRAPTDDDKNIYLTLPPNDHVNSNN

T2: human OX40 expressed on HEK-Blue: OX40 cells (human, UniProt P43489 29-277)
T2 construct: also called CD134
T2 sequence: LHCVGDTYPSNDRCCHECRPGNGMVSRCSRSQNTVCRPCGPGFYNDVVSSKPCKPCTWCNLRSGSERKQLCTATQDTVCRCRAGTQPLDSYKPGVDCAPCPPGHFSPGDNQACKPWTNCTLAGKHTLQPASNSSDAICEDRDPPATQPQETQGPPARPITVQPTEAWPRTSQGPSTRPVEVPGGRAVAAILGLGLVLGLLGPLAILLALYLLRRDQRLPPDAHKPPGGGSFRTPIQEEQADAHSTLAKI

T3: human FcγRIIB (NM_004001) expressed on cells (human, UniProt P31994 43-310)
T3 construct: Transiently expressed on Expi293F cells; also called Expi293F FcγRIIB; HEK293F cells expressing FcγRIIB
T3 sequence: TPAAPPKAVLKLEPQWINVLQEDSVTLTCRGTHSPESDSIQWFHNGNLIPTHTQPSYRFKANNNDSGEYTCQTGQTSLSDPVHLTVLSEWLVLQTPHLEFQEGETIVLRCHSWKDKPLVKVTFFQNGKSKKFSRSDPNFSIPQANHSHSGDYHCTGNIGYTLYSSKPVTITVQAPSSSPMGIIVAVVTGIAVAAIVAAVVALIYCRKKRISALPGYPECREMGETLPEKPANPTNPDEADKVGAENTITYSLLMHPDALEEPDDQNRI

T4: FcγRIIB protein (human, UniProt P31994 43-217, biotinylated (SureLINK Biotin Kit) in the ELISA of Example 1)
T4 sequence: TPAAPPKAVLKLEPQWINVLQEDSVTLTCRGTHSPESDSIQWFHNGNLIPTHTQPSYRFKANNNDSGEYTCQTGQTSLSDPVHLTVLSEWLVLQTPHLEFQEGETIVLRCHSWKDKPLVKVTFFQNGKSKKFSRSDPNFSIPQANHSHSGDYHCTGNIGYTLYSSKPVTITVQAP

T5: FcγRIIA protein (human, UniProt P12318 36-217, biotinylated (SureLINK Biotin Kit) in the ELISA of Example 1)
T5 sequence: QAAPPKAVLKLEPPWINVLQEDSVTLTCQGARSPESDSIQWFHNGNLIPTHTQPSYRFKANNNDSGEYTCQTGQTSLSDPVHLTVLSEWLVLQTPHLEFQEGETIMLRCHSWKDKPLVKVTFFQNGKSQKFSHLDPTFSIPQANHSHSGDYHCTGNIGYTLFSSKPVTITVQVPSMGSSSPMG


What was measured:
[1] = molecular target: T6, human FcγRIIIA (NM_000569) expressed on cells (human, UniProt P08637 17-254); assay: cell-based or functional assay
[2] = molecular target: T1, human FcγRIIA (NM_021642) expressed on …; assay: cell-based or functional assay
[3] = molecular target: T2, human OX40 expressed on HEK-Blue: OX40 …; assay: flow cytometry; HEK-Blue: OX40 cells
Method in brief: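 HEK-Blue Null 1 cells stably transfected with human OX40 were blocked, then incubated with mAbtyrin for 1.5 h at 4 °C. Binding was detected with a PE anti-human IgG F(ab′)₂ secondary, gating on DRAQ7-excluding live cells and taking geometric mean fluorescence. EC50 came from nonlinear regression versus log antibody concentration.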

[4] = molecular target: T3, human FcγRIIB (NM_004001) expressed on …; assay: flow cytometry; Raji cells (express predominantly FcγRIIB)
Method: (§1) 2×10⁵ cells per well were seeded in 96-well plate and blocked in BSA Stain Buffer (BD Biosciences, San Jose, USA) for 30 min at 4° C. Cells were incubated with test mAbtyrin on ice for 1.5 h at 4° C. After being washed twice with BSA stain buffer, the cells were incubated with R-PE labeled anti-human or anti-mouse IgG secondary antibody (Jackson Immunoresearch Laboratories) for 45 min at 4° C. The cells were washed twice in stain buffer and then resuspended in 150 μL of Stain Buffer containing 1:200 diluted DRAQ7 live/dead stain (Cell Signaling Technology, Danvers, USA). PE and DRAQ7 signals of the stained cells were detected by Miltenyi MACSQuant flow cytometer (Miltenyi Biotec, Auburn, USA) using B2 and B4 channel respectively. Live cells were gated on DRAQ7 exclusion and the geometric mean fluorescence signals were determined for at least 10,000 live events collected. FlowJo software (Tree Star) was used for analysis. Data was plotted as the logarithm of antibody concentration versus mean fluorescence signals. Nonlinear regression analysis was performed by GraphPad Prism 6 (GraphPad Software, Inc.) and EC₅₀ values were calculated.
Raji cell is a cell line derived from B cells that express predominantly FcγRIIB. The binding of mAbtyrins on Raji cells were investigated by flow cytometry assay described for testing mAbtyrin binding to FcγR. Binding of the mAbtyrins were detected by flow cytometry using a PE-labeled Goat F(ab′) against Human IgG(γ).

[5] = molecular target: T3, human FcγRIIB (NM_004001) expressed on …; assay: flow cytometry; Expi293F cells transfected with FcγRIIB
Method: (§2) Plasmids expressing cDNAs encoding human FcγRI (NM_000566) (SEQ ID NO: 44), FcγRIIA (NM_021642) (SEQ ID NO: 2), FcγRIIB (NM_004001) (SEQ ID NO: 3), and FcγRIIIA (NM_000569) (SEQ ID NO: 45) (Origene) were transiently transfected into Expi293F cells by ExpiFectamine293 transfection kit (Life Technologies). Flow cytometry assays were performed 48 h after transfection.
as §1

[6] = molecular target: T7, human FcγRI (NM_000566) expressed on cells (human, UniProt P12314 16-374); assay: flow cytometry; Expi293F cells transfected with FcγRI
T7 construct: Transiently expressed on Expi293F cells
Method: as §2, §1

FcγRIIB protein = molecular target: T4, FcγRIIB protein; assay: cell-based or functional assay
FcγRIIA protein = molecular target: T5, FcγRIIA protein; assay: cell-based or functional assay
[7] = molecular target: T3, human FcγRIIB (NM_004001) expressed on …; assay: cell-based or functional assay
[8] = molecular target: T6, human FcγRIIIA (NM_000569) expressed on …; assay: flow cytometry; Expi293F cells transfected with FcγRIIIA
Method: as §2, §1

[9] = molecular target: T1, human FcγRIIA (NM_021642) expressed on …; assay: flow cytometry; Expi293F cells transfected with FcγRIIA
Method: as §2, §1

T6 sequence (P08637 17-254 limits assumed): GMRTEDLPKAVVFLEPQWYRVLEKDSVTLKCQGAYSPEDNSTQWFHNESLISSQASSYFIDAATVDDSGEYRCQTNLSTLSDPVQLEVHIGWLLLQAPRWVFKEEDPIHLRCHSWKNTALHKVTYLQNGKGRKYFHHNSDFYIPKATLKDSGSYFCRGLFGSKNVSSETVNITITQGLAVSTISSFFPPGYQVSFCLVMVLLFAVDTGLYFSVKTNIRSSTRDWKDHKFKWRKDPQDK
T7 sequence (P12314 16-374 limits assumed): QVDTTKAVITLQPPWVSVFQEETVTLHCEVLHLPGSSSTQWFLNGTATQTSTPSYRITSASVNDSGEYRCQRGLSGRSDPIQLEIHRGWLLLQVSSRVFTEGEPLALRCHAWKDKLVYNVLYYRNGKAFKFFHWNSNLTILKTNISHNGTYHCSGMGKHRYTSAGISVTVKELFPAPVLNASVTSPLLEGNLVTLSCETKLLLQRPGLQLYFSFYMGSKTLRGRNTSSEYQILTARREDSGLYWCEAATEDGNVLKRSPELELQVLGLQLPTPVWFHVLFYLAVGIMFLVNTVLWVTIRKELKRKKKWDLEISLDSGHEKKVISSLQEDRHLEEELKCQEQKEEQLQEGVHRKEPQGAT

Binder	ADCC (fold activation) at 1 µg/ml [1] [fold]	ADCP EC50 [2] [µg/mL]	EC50 [3] [µg/mL]	EC50 [4] [µg/mL]	EC50 [5] [µg/mL]	EC50 [6] [µg/mL]	IFNγ production by activated CD4 T cells, plate-coated FcγRIIb (FcγRIIB protein) [pg/mL]	TNFα production by activated CD4 T cells, plate-coated FcγRIIb (FcγRIIB protein) [pg/mL]	IFNγ production by activated CD4 T cells, plate-coated FcγRIIA (FcγRIIA protein) [pg/mL]	TNFα production by activated CD4 T cells, plate-coated FcγRIIA (FcγRIIA protein) [pg/mL]	% activity at 1 µg/ml with Raji cells (HEK-Blue: OX40 NF-κB reporter) [7] [%]	EC50 [8] [µg/mL]	EC50 [9] [µg/mL]
OX40SF2IgG1_R2BS29_LC-C (bispecific antibody, mAbtyrin: wild-type IgG1 OX40SF2 with linker and R2BS29 FN3 domain at the C-terminus of the light chain; also called mAbtyrin) heavy: not shown light: DIQMTQSPSSLSASVGDRVTITCKASQDVGAAVAWYQQKPGKAPKLLIYWASTRHTGVPSRFSGSGSGTDFTLTISSLQPEDFATYYCQQYINYPLTFGGGTKVEIKRTVAAPSVFIFPPSDEQLKSGTASVVCLLNNFYPREAKVQWKVDNALQSGNSQESVTEQDSKDSTYSLSSTLTLSKADYEKHKVYACEVTHQGLSSPVTKSFNRGECGGGGSGGGGSGGGGSGGGGSMLPAPKNLVVSRVTEDSARLSWTAPDAAFDSFPIYYWEYRVGGEAIVLTVPGSERSYDLTGLKPGTEYFVYINGVKGGEESRPLSAIFTT	9	0.0151	0.111	3.3	1	0.397	177	37	125	33	76	0.585	0.066
OX40SF2IgG1_R2BS29_HC-C (bispecific antibody, mAbtyrin: wild-type IgG1 OX40SF2 with linker and R2BS29 FN3 domain at the C-terminus of the heavy chain; also called mAbtyrin) heavy: not shown light: DIQMTQSPSSLSASVGDRVTITCKASQDVGAAVAWYQQKPGKAPKLLIYWASTRHTGVPSRFSGSGSGTDFTLTISSLQPEDFATYYCQQYINYPLTFGGGTKVEIKRTVAAPSVFIFPPSDEQLKSGTASVVCLLNNFYPREAKVQWKVDNALQSGNSQESVTEQDSKDSTYSLSSTLTLSKADYEKHKVYACEVTHQGLSSPVTKSFNRGEC	9	0.0318	0.193	1.27	0.968	0.586	1370	250	1760	335	90	0.448	0.063
